Measurements taken from patent US20100093563A1 (published 2010).

Target: T1, ovalbumin (UniProt P01012 2-386)
T1 sequence: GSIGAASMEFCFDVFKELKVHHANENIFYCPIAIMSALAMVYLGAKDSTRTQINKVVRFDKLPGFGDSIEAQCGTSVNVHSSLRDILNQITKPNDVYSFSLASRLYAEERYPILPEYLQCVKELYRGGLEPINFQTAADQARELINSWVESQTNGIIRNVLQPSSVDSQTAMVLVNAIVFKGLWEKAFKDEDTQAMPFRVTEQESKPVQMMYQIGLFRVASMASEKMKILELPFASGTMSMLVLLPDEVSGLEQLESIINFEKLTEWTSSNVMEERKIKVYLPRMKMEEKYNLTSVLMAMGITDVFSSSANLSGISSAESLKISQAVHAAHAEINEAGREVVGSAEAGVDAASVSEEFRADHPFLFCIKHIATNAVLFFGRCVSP
Experiment: phage ELISA, ovalbumin coated 100 ng per well, anti-HA or anti-M13 detection

B1: 2G12 domain exchanged Fab fragment displayed on phage (Fab, V domains shown)
VH: EVQLVESGGGLVKAGGSLILSCGVSNFRISAHTMNWVRRVPGGGLEWVASISTSSTYRDYADAVKGRFTVSRDDLEDFVYLQMHKMRVEDTAIYYCARKGSDRLSDNDPFDAWGPGTVVTVSP
VL: GVVMTQSPSTLSASVGDTITITCRASQSIETWLAWYQQKPGKAPKLLIYKASTLKTGVPSRFSGSGSGTEFTLTISGLQFDDFATYHCQHYAGYSATFGQGTRVEIKR
notes: also called 2G12 Fab; phage from 2G12 pCAL G13 vector
B1: no binding.
